Measured values taken from PMC6724696 (Molecular Biology of the Cell, 2019).
Read-outs that look alike come from different tables or passages of the source. Where no end group is shown, it is not given here.

Key:
Test in all cases: crystal structure
[1] = target: the molecule itself
[2] = target: the molecule itself; remark: listed apart in the source
[3] = target: the molecule itself; remark: listed apart in the source

B1: Spc42^246–305 (domain or fragment, Saccharomyces cerevisiae, UniProt P36094 246-305, looked up)
chain: SDDDIMMYESAELKRVEEEIEELKRKILVRKKHDLRKLSLNNQLQELQSMMDGDDNIKLD
modifications: also: selenomethionine (SeMet) in the crystals
- stoichiometry N [1]: 2

B2: H6-Spc42^11–130-3K2N (SeMet) (domain or fragment, Saccharomyces cerevisiae, UniProt P36094 11-130, looked up)
chain: SSKSSRLYDDYYNIPYQYSNPTPMNRDYNDVGSRINADKLVPEEYKRNTEFINKAVQQNKELNFKLREKQNEIFELKKIAETLRSKLEKYVDITKKLEDQNLNLQIKISDLEKKLSDANS
modifications: selenomethionine (SeMet)
- binding result [2]: binds

Protein: SDQDSRLKAIERELEVLTNYVMRSEDGNNDR (domain or fragment, Saccharomyces cerevisiae, UniProt P36094 181-211, looked up) [3H5I-Spc42^181–211 T193E,S195E]
- stoichiometry N [3]: 3
